According to US20250145711A1 (Janssen / Centocor, published 2025):

Legend:
[1] = target: T1, human PSMA on prostate cancer cell lines (22RV1, C4-2B) (human, UniProt Q04609 1-750); assay: flow cytometry on 22RV1 cells
T1 construct: also called PSMA-expressing cell lines
Procedure: (§1) 22RV1 and C4-2B cells were plated at 50,000 cells per well in 50 μl of assay medium (RPMI, 10% HI FBS) in V bottom plates. Serial dilutions of antibodies were prepared in assay medium with 50 μl of antibody dilutions added to the plates containing cells. The plates were incubated for 60 min at 37° C. at which time 100 μl of staining buffer (Becton Dickinson Cat #554657) was added to all wells of each plate. The plates were centrifuged at 300×G for 5 minutes and the medium was removed from the wells. 200 μl of staining buffer was added to all wells of each plate. The plates were centrifuged at 300× G for 5 minutes and the medium was removed from the wells. 50 μl of 2 μg/ml AlexaFluor647-labeled goat anti-human Fc was added to all wells of the plates and the plates were incubated for 30 minutes at 4° C. 150 μl of staining buffer was added to all wells of each plate. The plates were centrifuged at 300× G for 5 minutes and the medium was removed from the wells.

[2] = target: T1, human PSMA on prostate cancer cell …; assay: flow cytometry on C4-2B cells
Procedure: as §1

recombinant human PSMA = target: T2, recombinant human PSMA (human, UniProt Q04609 44-750); assay: SPR (Biacore 8K), antibody captured on anti-Fc, PSMA in solution
T2 construct: also called hu PSMA; prostate-specific membrane antigen
Procedure: The binding affinity of anti-PSMA to the recombinant human, cynomolgus or mouse PSMA was determined by surface plasmon resonance (SPR) using a Biacore 8K instrument\. […] The association and dissociation were monitored for 3 and 15 minutes, respectively, using a flow rate of 50 μL/min. Raw binding data was referenced by subtracting the analyte binding signals from blanks and analyzed using a 1:1 Langmuir binding model using the Biacore Insight evaluation software to obtain the kinetics which were used to calculate the binding affinity. The anti-PSMA were captured using an anti-human Fc antibody and the antigens were injected in solution.

T2 sequence (Q04609 44-750 limits assumed): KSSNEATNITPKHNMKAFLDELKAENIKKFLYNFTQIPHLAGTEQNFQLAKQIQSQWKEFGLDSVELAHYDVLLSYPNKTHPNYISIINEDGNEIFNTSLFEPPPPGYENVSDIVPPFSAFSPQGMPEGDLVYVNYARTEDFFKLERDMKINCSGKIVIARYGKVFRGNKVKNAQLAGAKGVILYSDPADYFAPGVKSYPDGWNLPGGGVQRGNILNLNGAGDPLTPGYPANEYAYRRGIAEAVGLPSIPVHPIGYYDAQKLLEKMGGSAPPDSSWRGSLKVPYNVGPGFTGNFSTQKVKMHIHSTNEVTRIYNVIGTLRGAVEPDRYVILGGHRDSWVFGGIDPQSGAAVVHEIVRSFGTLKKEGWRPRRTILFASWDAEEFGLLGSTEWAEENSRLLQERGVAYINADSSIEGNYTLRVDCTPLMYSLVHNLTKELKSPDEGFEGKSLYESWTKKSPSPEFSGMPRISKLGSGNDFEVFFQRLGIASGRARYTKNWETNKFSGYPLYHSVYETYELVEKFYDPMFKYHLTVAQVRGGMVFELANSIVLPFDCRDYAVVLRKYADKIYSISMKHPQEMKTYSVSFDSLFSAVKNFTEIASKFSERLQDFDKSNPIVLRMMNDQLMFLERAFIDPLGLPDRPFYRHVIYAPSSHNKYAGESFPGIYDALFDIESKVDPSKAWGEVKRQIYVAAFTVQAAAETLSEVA
T1 sequence (Q04609 whole entry): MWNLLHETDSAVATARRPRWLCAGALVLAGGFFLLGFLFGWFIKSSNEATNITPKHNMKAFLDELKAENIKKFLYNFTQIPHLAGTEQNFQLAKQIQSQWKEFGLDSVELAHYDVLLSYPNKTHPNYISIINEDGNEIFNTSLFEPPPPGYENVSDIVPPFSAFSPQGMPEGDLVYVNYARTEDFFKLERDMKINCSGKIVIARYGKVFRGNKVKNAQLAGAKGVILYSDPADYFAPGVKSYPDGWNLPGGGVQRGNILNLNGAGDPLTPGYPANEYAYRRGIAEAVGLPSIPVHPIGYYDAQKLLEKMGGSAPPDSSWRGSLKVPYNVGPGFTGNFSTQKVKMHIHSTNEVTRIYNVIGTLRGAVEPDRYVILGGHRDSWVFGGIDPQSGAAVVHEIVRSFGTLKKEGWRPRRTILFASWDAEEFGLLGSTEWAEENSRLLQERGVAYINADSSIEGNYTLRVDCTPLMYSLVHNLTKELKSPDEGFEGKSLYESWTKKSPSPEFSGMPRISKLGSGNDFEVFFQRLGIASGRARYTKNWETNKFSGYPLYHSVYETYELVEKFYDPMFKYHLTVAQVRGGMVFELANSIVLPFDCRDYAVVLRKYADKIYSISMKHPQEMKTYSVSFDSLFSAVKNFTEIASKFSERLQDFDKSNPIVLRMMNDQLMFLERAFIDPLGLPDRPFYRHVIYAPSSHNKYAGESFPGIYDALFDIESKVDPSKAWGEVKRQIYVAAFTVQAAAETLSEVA

EC50 [1]	EC50 [2]	Kd (recombinant human PSMA)	Binder
0.06 µM	0.06 µM	–	PS3B931 (bispecific antibody, human IgG1, kappa, lambda, L234A L235A, FAB-A: CD3B2183 (CD3W245); FAB-B: PSMB890) heavy 1: EVQLVESGGGLVKPGGSLRLSCAASGFTFSRYNMNWVRQAPGKGLEWVSSISTSSNYIYYADSVKGRFTFSRDNAKNSLDLQMSGLRAEDTAIYYCTRGWGPFDYWGQGTLVTVSSASTKGPSVFPLAPSSKSTSGGTAALGCLVKDYFPEPVTVSWNSGALTSGVHTFPAVLQSSGLYSLSSVVTVPSSSLGTQTYICNVNHKPSNTKVDKKVEPKSCDKTHTCPPCPAPEAAGGPSVFLFPPKPKDTLMISRTPEVTCVVVSVSHEDPEVKFNWYVDGVEVHNAKTKPREEQYNSTYRVVSVLTVLHQDWLNGKEYKCKVSNKALPAPIEKTISKAKGQPREPQVYTLPPSREEMTKNQVSLTCLVKGFYPSDIAVEWESNGQPENNYKTTPPVLDSDGSFLLYSKLTVDKSRWQQGNVFSCSVMHEALHNHYTQKSLSLSP light 1: DIQMTQSPSSLSASVGDRVTITCRARQSIGTAIHWYQQKPGKAPKLLIKYASESISGVPSRFSGSGSGTDFTLTISSLQPEDFATYYCQQSGSWPYTFGQGTKLEIKRTVAAPSVFIFPPSDEQLKSGTASVVCLLNNFYPREAKVQWKVDNALQSGNSQESVTEQDSKDSTYSLSSTLTLSKADYEKHKVYACEVTHQGLSSPVTKSFNRGEC heavy 2: EVQLVESGGGLVKPGGSLRLSCAASGFTFSRYNMNWVRQAPGKGLEWVSSINSNSRYIYYADSVKGRFTISRDSAKNSLYLQMNSLRAEDTAVYYCAKTMGDYYYYYGMDVWGQGTTVTVSSASTKGPSVFPLAPSSKSTSGGTAALGCLVKDYFPEPVTVSWNSGALTSGVHTFPAVLQSSGLYSLSSVVTVPSSSLGTQTYICNVNHKPSNTKVDKKVEPKSCDKTHTCPPCPAPEAAGGPSVFLFPPKPKDTLMISRTPEVTCVVVSVSHEDPEVKFNWYVDGVEVHNAKTKPREEQYNSTYRVVSVLTVLHQDWLNGKEYKCKVSNKALPAPIEKTISKAKGQPREPQVYTLPPSREEMTKNQVSLTCLVKGFYPSDIAVEWESNGQPENNYKTTPPVLDSDGSFFLYSRLTVDKSRWQQGNVFSCSVMHEALHNHYTQKSLSLSPG light 2: SSELTQPPSVSGAPGQRVTISCAGSLSNIGAGYDVHWYQQLPGTAPKLLIYGNINRLSGVPERFSGSKSGTSASLAITGLQAEDGADYYCQSYDSSLSSYVFGTGTKVTVLGQPKAAPSVTLFPPSSEELQANKATLVCLISDFYPGAVTVAWKADSSPVKAGVETTTPSKQSNNKYAASSYLSLTPEQWKSHRSYSCQVTHEGSTVEKTVAPTECS
0.00342 µM	0.00456 µM	≤ 0.00024 µM	PS3B913 (bispecific antibody, human IgG1, lambda, L234A L235A, FAB-A: CD3B891 (CD3B376 - K477); FAB-B: PSMB891) heavy 1: QVQLQQSGPRLVRPSQTLSLTCAISGDSVFNNNAAWSWIRQSPSRGLEWLGRTYYRSKWLYDYAVSVKSRITVNPDTSRNQFTLQLNSVTPEDTALYYCARGYSSSFDYWGQGTLVTVSSASTKGPSVFPLAPSSKSTSGGTAALGCLVKDYFPEPVTVSWNSGALTSGVHTFPAVLQSSGLYSLSSVVTVPSSSLGTQTYICNVNHKPSNTKVDKKVEPKSCDKTHTCPPCPAPEAAGGPSVFLFPPKPKDTLMISRTPEVTCVVVSVSHEDPEVKFNWYVDGVEVHNAKTKPREEQYNSTYRVVSVLTVLHQDWLNGKEYKCKVSNKALPAPIEKTISKAKGQPREPQVYTLPPSREEMTKNQVSLTCLVKGFYPSDIAVEWESNGQPENNYKTTPPVLDSDGSFLLYSKLTVDKSRWQQGNVFSCSVMHEALHNHYTQKSLSLSPG light 1: QSALTQPASVSGSPGQSITISCTGTSSNIGTYKFVSWYQQHPDKAPKVLLYEVSKRPSGVSSRFSGSKSGNTASLTISGLQAEDQADYHCVSYAGSGTLLFGGGTKLTVLGQPKAAPSVTLFPPSSEELQANKATLVCLISDFYPGAVTVAWKADSSPVKAGVETTTPSKQSNNKYAASSYLSLTPEQWKSHRSYSCQVTHEGSTVEKTVAPTECS heavy 2: not shown light 2: not shown
0.0249 µM	0.0233 µM	0.000823 µM	PS3B919 (bispecific antibody, human IgG1, lambda, L234A L235A, FAB-A: CD3B891 (CD3B376 - K477); FAB-B: PSMB895) heavy 1: QVQLQQSGPRLVRPSQTLSLTCAISGDSVFNNNAAWSWIRQSPSRGLEWLGRTYYRSKWLYDYAVSVKSRITVNPDTSRNQFTLQLNSVTPEDTALYYCARGYSSSFDYWGQGTLVTVSSASTKGPSVFPLAPSSKSTSGGTAALGCLVKDYFPEPVTVSWNSGALTSGVHTFPAVLQSSGLYSLSSVVTVPSSSLGTQTYICNVNHKPSNTKVDKKVEPKSCDKTHTCPPCPAPEAAGGPSVFLFPPKPKDTLMISRTPEVTCVVVSVSHEDPEVKFNWYVDGVEVHNAKTKPREEQYNSTYRVVSVLTVLHQDWLNGKEYKCKVSNKALPAPIEKTISKAKGQPREPQVYTLPPSREEMTKNQVSLTCLVKGFYPSDIAVEWESNGQPENNYKTTPPVLDSDGSFLLYSKLTVDKSRWQQGNVFSCSVMHEALHNHYTQKSLSLSPG light 1: QSALTQPASVSGSPGQSITISCTGTSSNIGTYKFVSWYQQHPDKAPKVLLYEVSKRPSGVSSRFSGSKSGNTASLTISGLQAEDQADYHCVSYAGSGTLLFGGGTKLTVLGQPKAAPSVTLFPPSSEELQANKATLVCLISDFYPGAVTVAWKADSSPVKAGVETTTPSKQSNNKYAASSYLSLTPEQWKSHRSYSCQVTHEGSTVEKTVAPTECS heavy 2: EVQLVESGGGLVQPGGSLRLSCAASGFTFSSYAMSWVRQAPGKGLEWVSAISGGIGSTYYADSVKGRFTISRDNSKNTLWLQMNSLRAEDTAVYYCAKDGVGATPYYFDYWGQGTLVTVSSASTKGPSVFPLAPSSKSTSGGTAALGCLVKDYFPEPVTVSWNSGALTSGVHTFPAVLQSSGLYSLSSVVTVPSSSLGTQTYICNVNHKPSNTKVDKKVEPKSCDKTHTCPPCPAPEAAGGPSVFLFPPKPKDTLMISRTPEVTCVVVSVSHEDPEVKFNWYVDGVEVHNAKTKPREEQYNSTYRVVSVLTVLHQDWLNGKEYKCKVSNKALPAPIEKTISKAKGQPREPQVYTLPPSREEMTKNQVSLTCLVKGFYPSDIAVEWESNGQPENNYKTTPPVLDSDGSFFLYSRLTVDKSRWQQGNVFSCSVMHEALHNHYTQKSLSLSPG light 2: QSVLTQPPSVSAAPGQKVTISCSGSSSNIGNNYVSWYQQLPGTAPKLLIYDNNKRPSGIPDRFSGSKSGTSATLGITGLQTGDEADYYCGTWDSSLSAYVFGTGTKVTVLGQPKAAPSVTLFPPSSEELQANKATLVCLISDFYPGAVTVAWKADSSPVKAGVETTTPSKQSNNKYAASSYLSLTPEQWKSHRSYSCQVTHEGSTVEKTVAPTECS
0.06 µM	0.06 µM	0.00189 µM	PS3B915 (bispecific antibody, human IgG1, lambda, L234A L235A, FAB-A: CD3B891 (CD3B376 - K477); FAB-B: PSMB892) heavy 1: QVQLQQSGPRLVRPSQTLSLTCAISGDSVFNNNAAWSWIRQSPSRGLEWLGRTYYRSKWLYDYAVSVKSRITVNPDTSRNQFTLQLNSVTPEDTALYYCARGYSSSFDYWGQGTLVTVSSASTKGPSVFPLAPSSKSTSGGTAALGCLVKDYFPEPVTVSWNSGALTSGVHTFPAVLQSSGLYSLSSVVTVPSSSLGTQTYICNVNHKPSNTKVDKKVEPKSCDKTHTCPPCPAPEAAGGPSVFLFPPKPKDTLMISRTPEVTCVVVSVSHEDPEVKFNWYVDGVEVHNAKTKPREEQYNSTYRVVSVLTVLHQDWLNGKEYKCKVSNKALPAPIEKTISKAKGQPREPQVYTLPPSREEMTKNQVSLTCLVKGFYPSDIAVEWESNGQPENNYKTTPPVLDSDGSFLLYSKLTVDKSRWQQGNVFSCSVMHEALHNHYTQKSLSLSPG light 1: QSALTQPASVSGSPGQSITISCTGTSSNIGTYKFVSWYQQHPDKAPKVLLYEVSKRPSGVSSRFSGSKSGNTASLTISGLQAEDQADYHCVSYAGSGTLLFGGGTKLTVLGQPKAAPSVTLFPPSSEELQANKATLVCLISDFYPGAVTVAWKADSSPVKAGVETTTPSKQSNNKYAASSYLSLTPEQWKSHRSYSCQVTHEGSTVEKTVAPTECS heavy 2: not shown light 2: not shown
0.054 µM	0.0368 µM	0.000174 µM	PS3B912 (bispecific antibody, human IgG1, lambda, L234A L235A, FAB-A: CD3B891 (CD3B376 - K477); FAB-B: PSMB899) heavy 1: QVQLQQSGPRLVRPSQTLSLTCAISGDSVFNNNAAWSWIRQSPSRGLEWLGRTYYRSKWLYDYAVSVKSRITVNPDTSRNQFTLQLNSVTPEDTALYYCARGYSSSFDYWGQGTLVTVSSASTKGPSVFPLAPSSKSTSGGTAALGCLVKDYFPEPVTVSWNSGALTSGVHTFPAVLQSSGLYSLSSVVTVPSSSLGTQTYICNVNHKPSNTKVDKKVEPKSCDKTHTCPPCPAPEAAGGPSVFLFPPKPKDTLMISRTPEVTCVVVSVSHEDPEVKFNWYVDGVEVHNAKTKPREEQYNSTYRVVSVLTVLHQDWLNGKEYKCKVSNKALPAPIEKTISKAKGQPREPQVYTLPPSREEMTKNQVSLTCLVKGFYPSDIAVEWESNGQPENNYKTTPPVLDSDGSFLLYSKLTVDKSRWQQGNVFSCSVMHEALHNHYTQKSLSLSPG light 1: QSALTQPASVSGSPGQSITISCTGTSSNIGTYKFVSWYQQHPDKAPKVLLYEVSKRPSGVSSRFSGSKSGNTASLTISGLQAEDQADYHCVSYAGSGTLLFGGGTKLTVLGQPKAAPSVTLFPPSSEELQANKATLVCLISDFYPGAVTVAWKADSSPVKAGVETTTPSKQSNNKYAASSYLSLTPEQWKSHRSYSCQVTHEGSTVEKTVAPTECS heavy 2: EVQLVESGGGLVQPGGSLRLSCTASGFIFSSYAMSWVRQAPGKGLEWVSAISGGYGAPYYADTVKGRFTISRDNSKNTLYLQMNSLRAEDTAVYYCAKDGVGATPYYFDDWGQGILVTVSSASTKGPSVFPLAPSSKSTSGGTAALGCLVKDYFPEPVTVSWNSGALTSGVHTFPAVLQSSGLYSLSSVVTVPSSSLGTQTYICNVNHKPSNTKVDKKVEPKSCDKTHTCPPCPAPEAAGGPSVFLFPPKPKDTLMISRTPEVTCVVVSVSHEDPEVKFNWYVDGVEVHNAKTKPREEQYNSTYRVVSVLTVLHQDWLNGKEYKCKVSNKALPAPIEKTISKAKGQPREPQVYTLPPSREEMTKNQVSLTCLVKGFYPSDIAVEWESNGQPENNYKTTPPVLDSDGSFFLYSRLTVDKSRWQQGNVFSCSVMHEALHNHYTQKSLSLSPG light 2: QSVLTQPPSVSAAPGQKVTISCSGSSSNIGNNYVSWYQQLPGTAPKLLIFDNNKRPSGIPDRFSGSKSGTSATLGITGLQTGDEADYYCGTWDSSLSAYVFGTGTKVTVLGQPKAAPSVTLFPPSSEELQANKATLVCLISDFYPGAVTVAWKADSSPVKAGVETTTPSKQSNNKYAASSYLSLTPEQWKSHRSYSCQVTHEGSTVEKTVAPTECS
